# Laboratory results as given in the DeepSol protein solubility set.
# Experiment: soluble on expression in E. coli; label from the status in PepcDB or PDB records
row,Sequence,soluble on expression in E. coli
1,MSSEDFYRELKQRSLFEAIHLIEQELLKVESQIGTDALPKNEKLNLKVNASLGFENAQLVSTKPLGKDKLALETNLIGLTGEQGVLPQHYSELALHRLKEGDHAMVDFYDIFNHRLLSLYYRSWQLSQLTIQARAHAKNQRSPLTDCMSSLTGGGNDLALHYGGMYASPTRSKGALKSILECLSGCQIRIHEFQGQWMRLSKSEQTRLVSKSMPEGQFAQLGAGASLGKKAWNINASTTIEFLPKESKQVTNLLPKTNTLKTIKQVAGDFIGKHKHVKWQLTTKHSLLPQVQISKQQGQLGVGSVLKKHERTEDRNITITV,not soluble
2,MTGSATRFGGSPGPVFALEKGERVEQMKLFKTYKEQVELLGQRGMQIDNSERAEKLLAQLNYYRLSGYWYPMRRFSPQNGIAQDEFVDGASFDLVVALYEFDERLRHSVFIELDRVELAIQTRLGHELGRLDPLIYLDPQRLGARASQRGKGERTVHEVWIGKYQSALKASKEDFVAHHNSKYGGTLPIWAAVEVMDWGMLSYLYGMSPNIVRKRIAEPCGLTGPQLESWLKSLNILRNYAAHHARMFNRVYDIKPKLNNDPKLTPVANRMNRVFGQLSMIQYLHHQLGLSQADRLTRLFNTYPHNPIVPLSRTGAPENWQELALWVP,not soluble
3,MEDYANISKGKEKFFPHCFYGRCCARRMLCDANVFPYALPVEANSLKEQAPCLKDEECDLFPDFLGTCVHHQNVTNILENRRFKYFPTNNNVKPKGYGMCCYSKKSSICSTGGTPFEVELSDGPCSNHIDCNPDELPFKWNAYCSQNAKSNMCCRDTLVDSLCPDGFTPYRTQQKCEGYHPLSKSSGKCPKSNGMCHRGHCCPRLTIDEARKATPYHLNYVTDTQCDPTEPLDFVYRWAFCDEIEEKIVVMGDRNADGTELNWQQSRCTINR,not soluble
4,MNKTKNYSDETIDAFHRGKFYLVQPRLCGHRSGMDAMLLASLVPNNFKGKVVDLGAGAGAVGLAVAARCLDVHVTLVERSAFMVSYAQKTLMLKQNENLSKRVCLLKADVTLKGRSRLEAGLVDNAFDFAIMNPPFNNPVDRKTPDEKKFEAHVMPESMFDDWLRSAAAIVKPGGYLGLIARPQSLTDILCALEGRFGNICVIPIHARTEKAAIRVLFYAKRGSRAALSLLRPLVIHEDGCHIFSPKIDAINNGHISLWELLK,not soluble
5,MRGKVYLVGAGFGGPEHLTLKALRVLEVAEVVLHDRLVHPGVLALAKGELVPVGKEGYGGKTPQEAITARLIALAREGRVVARLKGGDPMVFGRGGEEALALRRAGIPFEVVPGVTSAVGALSALGLPLTHRGLARSFAVATGHDPALPLPRADTLVLLMPLHTLGGLKERLLERFPPETPLALLARVGWPGEAVRLGRVEDLPGLGEGLPSPALLVVGKVVGLYGELLPKDHGL,soluble
6,SVKETENLLQTGISEVRGTLKISAPRDIGKQIISPMVSAFSEQYPDVTPYLYLNDNLSNLAESGLDLVIRYGELADSNLISRRLASSQRVLCASPDYLSKQGVPNCPQDLAAHRCLAMVRSNEELKTWHFKDEESHQSITVTPKRFSDDGEVIRQWALDGAGIALKSILDIQQDLKQQRLVTVLDGYMKNFSAFSQGAEADLHVIYQSRQYQPKRVRLFLDFLVEQFSALSDTSNQI,not soluble
7,MGSDKIHHHHHHMIHVGTCGFCEAREKYFKDFDAVEVQQTFYKVLQEKTLERWRKKAPEEFTFSIKAFQGVTHPSNSPTWRRSNVKPSKNVGLLRPTNEVLHYWRITLKEAKVLGARFILIQLPRSFKEGEESFENAEKFFNAIDRGDFEIGVELRGWSEKGVKRFVREFDVIDVTDPLLRIPLHKGSVNYYRLHGKYEGGKIIYNHSYSDEELKKIRERVLGWNVEESFVFFNNTSMCRDAKRFKLILDLH,not soluble
8,MSLKAIGFEQPFKLSDGNLFKTFNLDIPEPKVHEILVKIQSISVNPVDTKQRLMDVSKAPRVLGFDAIGVVESVGNEVTMFNQGDIVYYSGSPDQNGSNAEYQLINERLVAKAPKNISAEQAVSLPLTGITAYETLFDVFGISRNRNENEGKTLLIINGAGGVGSIATQIAKAYGLRVITTASRNETIEWTKKMGADIVLNHKESLLNQFKTQGIELVDYVFCTFNTDMYYDDMIQLVKPRGHIATIVAFENDQDLNALKPKSLSFSHEFMFARPLNQTDDMIKHHEYLEDITNKVEQNIYQPTTTKVIEGLTTENIYQAHQILESNTMIGKLVINLNEGHHHHHH,soluble
9,MGSDKIHHHHHHMEKLKLMTIVGTRPEIIRLSSTIKACDQYFNQILVHTGQNYDYTLNQIFFDDLELRQPDHYLEAVGSNLGETMGNIIAKTYDVLLREQPDALLILGDTNSCLAAVSAKRLKIPVFHMEAGNRCFDQNVPEEINRKIVDHVSDVNLPYTEHSRRYLLDEGFNKANIFVTGSPMTEVIEAHRDKINHSDVLNKLGLAPAAYILVSAHREENIDNEKNFKSLMNAINDIAKKYKMPVIYSTHPRSWKKIEESKFEFDPLVKQLKPFGFFDYNALQKDAFVVLSDSGTLSEESSILKFPGVLIRTSTERPEVLDKGTVIVGGITYNNLIQSVELAREMQNNNEPMIDAIDYKDTNVSTKVVKIIQSYKDIINRNTWRK,not soluble
10,MVPESHPRYKSLLNRDRIVEAFESGVLAKGGMIAHGRGETFDYLIGESTTDAALNSIKVSAALLVLAENPVISVNGNSVALAKDEFVELAKELNGKIEVNLFYRTTEREEKIKDVFESDINGGIVLLGIDNADKQIPGIDHLRGKVSESGIYTSDVVLVPLEDGDRAEALVKMGKTVIAIDLNPLSRTARKSTISIIDELTRCIPLITEYVREYKKMDRAELLKIVENYDNEENLRNILNLISKRLTSVDLEHHHHHH,soluble
11,GMTDAPADAPLDADARRAVKPVICYPNDSLPRPDLALYRAARASARKTGEVLVPPREGRCFEVKAGQFFRISSVEGPQVGDLNLHNLHDLTERFFSGKTRALHGTHVTTGERLWSNLPYLRPMATIIEDTLGWYGIDQYGGSVHDVIGTRCDPYTGNLLAGGHYHHCCHSNLTRALADHTGLPLHEAEMLVHDVLNVFMCTGFTRDTGQYFMKASPVRPGDYLEFFAEIDLLGNLSACPGGDCSSEHSSDTASCHPLLVEIFAPAEGMLGDWPSPSVNGYDRSHGR,soluble
12,MRNVLKAETLERKFPLLSVENGCIVSKDADLTVAFEVELPELFTMTAAEYEAVHSSWVKAVKVLPDFSVVCKQDWFTKETYRPDFRDGEQSFLSKSYERHFNERPYLNHKCYLYLTKTTRERSRQRSDFNSLCCGSLLPKEMVDKDTAVRFLEAVEQFERIMNDSGHVSLRRLEADEITGTEGRPGLVEKYFSLSLEDETAVLQDICLNPGGMRVGDKRLCVHTLSDTEDLPVRVSTDMRYGRMSTDRSDCRLSFAAPVGLLLPCNHIYSQYVFIDDAQEILRTMEKTSRNMLSLSKYSRSNAVNREWTEMYLDEAHTKGVLPVRCHCNVMAWAEDREELRRVKNDTGSQLAMMECTPRHNTVDAPVLYWAGIPGNAGDFPAEESFYTFLEQAVCLFTAETNYRSSSSPFGIRMADRRNGIPLHVDISDLPMKRGIITNRNKFVLGPSGSGKSFFTNHLVRQYYEQGTHILLVDTGNSYQGLCRMIHDRTHGEDGIYITYEEDNPIAFNPFYTDSGQFDVEKRESIKTLILTLWKREDEAPKRSEEVALSGAVNAYIRRITDDRASRPDFNGFYEFVRDDYRRMIEQKKVREKDFDIDGFLNVLEPFYRGGDYDFLLNSDKELDLTNKRFIVFELDNISSNKVLLPVVTLIIMETFISKMRKLRGIRKMILIEECWKALMSANMSEYIKYLFKTVRKYFGEAVVVTQEVDDIISSDIVKEAIINNSDCKILLDQRKYMNKFEHIQKLLGLTEKERGQILSINRANRPGPFYREVWIGLGGTHSAVYATEVSAEEYAVRP,not soluble
13,MFYLSELEHSLRVPPHLLNLPLEDAIKSVLQNVFLDKVLADLGLCVSIYDIKSVEGGFVLPGDGAATYKVGLRIVVFRPFVGEVIAAKFKESDANGLRLTLGFFDDIYVPAPLMPKPNRCEPDPYNRKQMIWVWEYGEPKEDYIVDDACQIKFRVESISYPSVPTERAEDAKPFAPMVVTGNMDDDGLGPVSWWDSYEQVDQEE,soluble
14,MGSSHHHHHHSSGLVPRGSHMRKVKIGELINSLVSEVEAIDASDRPQGDKTKKIKAAALKYKNALFNDKRKFRGKGLEKRISANTFNSYMSRARKRFDDRLHHNFEKNVIKLSEKYPLYSEELSSWLSMPAASIRQHMSRLQAKLKEIMPLAEDLSNIKIGTKNSEAKINKLANKYPEWQFAISDLNSEDWKDKRDYLYKLFQQGSSLLEDLNNLKVNHEVLYHLQLSSAERTSIQQRWANVLSEKKRNVVVIDYPRYMQAIYDIINKPIVSFDLTTRRGMAPLAFALAALSGRRMIEIMLQGEFSVAGKYTVTFLGQAKKRSEDKGISRKIYTLCDATLFVSLVNELRSCPAAADFDEVIKGYGENDTRSENGRINAILATAFNPWVKTFLGDDRRVYKDSRAIYARIAYEMFFRVDPRWKNVDEDVFFMEILGHDDENTQLHYKQFKLANFSRTWRPNVGEENARLAALQKLDSMMPDFARGDAGVRIHETVKQLVEQDPSIKITNSTLRPFNFSTRLIPRYLEFAADALGQFVGENGQWQLKDEAPAIVLPDEEI,soluble
15,MGSDKIHHHHHHMSVLQELTKKKYSSLKTMFDDKYCPTFVYSILDQTIPGAVYADDQTFPKSFFIGTESGIYFIAGDQGNRDFHDFIAGYYEEQVKSSKRFTLFSSSDTWDSVLKPILKDDLNQMRRAAFSYQPKSFKKTLQLPKGLVLKRIDEDIISHSTAFNSAYYEEYWNSVSQFASKGFGFAVLHGNHVVSECTSIFLGHNRAEMDIYTLEEYRGLGLAYCVANRFIAFCMENGIVPSWDCDICNNSSIALAAKLGFKTVTEYTIYYSG,not soluble
16,MADVEDGEETCALASHSGSSGSKSGGDKMFSLKKWNAVAMWSWDVECDTCAICRVQVMDACLRCQAENKQEDCVVVWGECNHSFHNCCMSLWVKQNNRCPLCQQDWVVQRIGKLEHHHHHH,soluble
17,MNNPEESAVTDLRKFTNLVLNGLVDEEATAAALIRYQFQQRTIKDVVRRGSEDPELKAQICDLLNHLVIYLNEEIVETSSKACPDGMDDRHFVQLEKRMHLMFEVYLAMNVVPDYLIPDLTKHVDASREAVKYSYSLCKDYYRWKELPLTLKEFFLDEKEEVKAVVDEPEPTMFARDDGVVSSLAHEKAQSDEDGKKKQFVAKTEKVLNNYRAKNPDYRTMRELINAKTKFRLEGIYCDSLIDDFISVWDMAIDIEPVKTEDKFAFTSLLKKVFLMMVDKRRNDFASKILDKYNNDASGVLPCLDNFVENFQTGLTAAINNLPLDANVLSNNMELFEKAKDPIIWYLLISPAYTVQQILLICVDNKGYVPLVSRIFRAIPTLFERSVNLTPMHFEGFKTQKLLITILHRVFIIGRTTWTSASQWENAAMMTMSFAKERKRKEGQPEKVEDKALLDSFSLVNFALNELFKDYRKPLKAVEIFVKMLQRLLANNNNARMLTNYQFSSSFFDDGNNYLPTSIIMLLMFDLLVEYDGQSNEVCDGARDILKSVSGRLNNDNIIFDTDTCRHLIDEKLNYAPWWIKYSICSWFSSSLQNPKKQVPSGVYKTIAEQHLDEFEQIKPEEVSTVSDCYFRSLFELGLFDVDLAIELLQYGHVAKFESSVVEKIALALVDSYGKKMSKRSGGLDIGKLIISMLQNSSYLESVKKIEHILVLFMAARIAKEKQLSAARVRTDDTIQTAYDEVISLNQVSDQLMDIFCETTKAHVDKEVMEVEQMRREVEVLLFSTPGTTPNQFKAMVEKENREQSLALQLSMIYLNCSYFCRLYQQVPIKLQQLMNSTLEKQFDSQKFLAKKVMDDVLTEKRKTEVVYAFVDTPVEPTPNEDNIQPVKPAELFRPPVVENVSVESTTYNSNGGGYRQGRYQTGYQGKNRRSNFEQPTSSRGSGRSDRTYAYKGNRFQPVNDSHVFAPRERENVYQNSSHDRDIPRNDYSEYDQEKLYLDDKQPRFHSENRNSNDVRRYSESKDSKYDNKNWNNRSSRWPSESEYSQEDSENRHLDQTIQSVRKFSYRENQQKHNRPGTSSASPPKNQEWKQHQQQKKSFGGGFGENGNKFNGNSRKQPERKPRYTSSNFYEQDEDSLQLLKPDRNELAQAMGLNDPPNPPKPRRSEWTRR,not soluble
